From patent CN115707716A (DANSHENG MEDICAL TECH SHANGHAI CO LTD, dated 2023)

Key:
VEGF-A165 = target: T1, VEGF-A165 (UniProt P15692-4 27-191); assay: ELISA, VEGF coated at 100 ng/well, HRP goat anti-human Fab detection
T1 construct: Isoform VEGF-A165; also called VEGF蛋白

TGF-β1蛋白 [1] = target: T2, TGF-β1蛋白 (UniProt P01137 279-390); assay: ELISA, TGF-β1 coated at 100 ng/well, HRP goat anti-human Fab detection
T2 construct: Bought protein

TGF-β1蛋白 [2] = target: T2, TGF-β1蛋白; assay: cell-based or functional assay

T2 sequence (P01137 279-390 limits assumed): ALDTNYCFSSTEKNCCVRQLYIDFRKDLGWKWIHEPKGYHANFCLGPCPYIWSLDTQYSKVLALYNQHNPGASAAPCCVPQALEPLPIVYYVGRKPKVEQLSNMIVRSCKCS
T1 sequence (P15692 other isoform, or with tags, fused parts or gaps limits assumed): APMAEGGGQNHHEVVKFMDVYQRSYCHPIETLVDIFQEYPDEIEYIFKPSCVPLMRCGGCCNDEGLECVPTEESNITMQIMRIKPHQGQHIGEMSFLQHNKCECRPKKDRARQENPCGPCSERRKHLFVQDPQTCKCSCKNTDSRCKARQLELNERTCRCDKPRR

binding result (VEGF-A165): no binding (tested: 200nM) | EC50 (TGF-β1蛋白 [1]): 0.202 nM | SMAD3报告基因抑制实验 IC50 (TGF-β1蛋白 [2]): 0.337 nM
B1: 抗TGF-β单抗12.7 (antibody, human IgG4 S228P, kappa, V domains shown)
VH: QVQLVQSGAEVKKPGASVKVSCKASGYTFTSEWMNWVRQAPGQGLEWMGQIFPALGSTNYNEMYEGRVTMTTDTSTSTAYMELRSLRSDDTAVYYCARGIGNYALDAMDYWGQGTLVTVSS
VL: DIQMTQSPSSLSASVGDRVTITCRASESVDFYGNSFMHWYQQKPGKAPKLLIYLASNLESGVPSRFSGSGSGTDFTLTISSLQPEDFATYYCQQNIEDPLTFGGGTKVEIKR
notes: also called mAb127
